# Data from paper PMC9770967, “Native holdup (nHU) to measure binding affinities from cell extracts” (Science Advances, 2022).
# How the values were obtained:
# SNX27_PDZ [1] = experiment: AP-MS control pull-down on leftover resin, SNX27_PDZ bait, total Jurkat extracts; format: binding, human; details: for FC_AP: SNX27 vs MBP
# Description: Leftover beads from nHU-MS experiments were washed three times immediately after the separation of the supernatant [10 resin volume in buffer containing 50 mM tris (pH 8.5), 150 mM NaCl, 1% Triton X-100, 10× cOmplete EDTA-free protease inhibitor cocktail, 2 mM EDTA, and 1 mM TCEP]. Then, the beads were washed two times [10 resin volume buffer containing 50 mM tris (pH 8.5), 150 mM NaCl, and 1 mM TCEP]. Last, captured protein was eluted from the resin in two steps, and the eluted fractions were pooled. For each elution, the beads were incubated for 30 min with three resin volume buffer containing 20 mM tris (pH 8.5), 100 mM NaCl, 500 μM TCEP, and 8 M urea. Between each step, the beads were separated by mild centrifugation, and the supernatant was removed by gentle pipetting.
# The nHU samples were precipitated with trichloroacetic acid (TCA) 20% overnight at 4°C and centrifuged at 14,000 rpm for 10 min at 4°C. The protein pellets were washed twice with 1 ml of cold acetone and air-dried. The protein extracts were solubilized in 8 M urea, reduced with 5 mM TCEP for 30 min, and alkylated with 10 mM iodoacetamide for 30 min in the dark. Double digestion was performed at 37°C with 500 ng of endoproteinase Lys-C (Wako, Richmond, USA) for 4 hours, followed by fourfold dilution and an overnight digestion with 500 ng of trypsin (Promega, Charbonnieres les Bains, France). Peptide mixtures were then desalted on a C18 spin-column and dried on a speed vacuum.
# Samples were analyzed using an Ultimate 3000 nano-RSLC coupled in line via a nano-electrospray ionization source, with an LTQ-Orbitrap ELITE mass spectrometer (Thermo Fisher Scientific, San Jose, CA) or with the Orbitrap Exploris 480 mass spectrometer (Thermo Fisher Scientific, Bremen, Germany) equipped with a high field asymmetric ion mobility spectrometry (FAIMS) module. Peptide mixtures were injected in 0.1% trifluoroacetic acid on a C18 Acclaim PepMap100 trap column [75 μm inner diameter (ID) × 2 cm, 3 μm, 100 Å, Thermo Fisher Scientific] for 3 min at 5 μl/min with 2% acetonitrile (ACN) and 0.1% formic acid (FA) in H2O and then separated on a C18 Acclaim PepMap100 nano-column (75 μm ID × 50 cm, 2.6 μm, 150 Å, Thermo Fisher Scientific) at 300 nl/min and 40°C with a 90-min linear gradient from 5 to 30% buffer B (A: 0.1% FA in H2O/B: 80% ACN, 0.1% FA in H2O) and regeneration at 5% B. Spray voltage was set to 2.1 kV and heated capillary temperature was set to 280°C.
# For the Orbitrap Elite, the mass spectrometer was operated in positive ionization mode in data-dependent mode with survey scans from mass/charge ratio (m/z) 350 to 1500 acquired in the Orbitrap at a resolution of 120,000 at m/z 400. The 20 most intense peaks from survey scans were selected for further fragmentation in the linear ion trap with an isolation window of 2.0 Da and were fragmented by collision-induced dissociation (CID) with a normalized collision energy of 35% (TOP 20 CID method). Unassigned and single-charged states were excluded from fragmentation. The ion target value for the survey scans (in the Orbitrap) and the MS2 mode (in the linear ion trap) were set to 1E6 and 5E3, respectively, and the maximum injection time was set to 100 ms for both scan modes. Dynamic exclusion was set to 20 s after one repeat count with mass width at ±10 parts per million (ppm).
# Proteins were identified by database search using SequestHT (Thermo Fisher Scientific) with Proteome Discoverer 2.4 software (PD2.4, Thermo Fisher Scientific) on the human FASTA database downloaded from UniProt (reviewed, release 2021_06_03, 20380 entries, https://uniprot.org/, complemented with sequences of likely contaminants, such as MBP, streptavidin, or trypsin). Precursor and fragment mass tolerances were set at 7 ppm and 0.6 Da, respectively, and up to two missed cleavages were allowed. […]
# SNX27_PDZ [2] = experiment: nHU-MS, SNX27_PDZ bait, total Jurkat extracts, series 1; format: binding, human; details: for pKapp_HU_not_filtered: SNX27 bait, not filtered for significance; for FC_HU: SNX27 vs MBP control
# Description: The empty His6-AviTag-MBP-TEV vector was used to produce biotinylated MBP for control experiments. Proteins were coexpressed with BirA biotin ligase (PET21a-BirA, Addgene, no. 20857) in Escherichia coli BL21(DE3) cells. At isopropyl-β-D-thiogalactopyranoside (IPTG) induction (1 mM IPTG at 18°C overnight), 50 μM biotin was added to the media. Harvested cells were lysed in a buffer containing 50 mM tris (pH 7.5), 150 to 300 mM NaCl, 50 μM biotin, 2 mM β-mercaptoethanol, cOmplete EDTA-free protease inhibitor cocktail (Roche, Basel, Switzerland), 1% Triton X-100, and trace amount of deoxyribonuclease, ribonuclease, and lysozyme. Lysates were frozen at −20°C before further purification steps. Lysates were sonicated and centrifuged for clarification. Expressed proteins were captured on in-house prepacked Ni-IDA (Protino Ni-IDA Resin, Macherey-Nagel, Duren, Germany) columns and were washed with at least 10 column volumes of cold wash buffer [50 mM tris (pH 7.5), 150 mM NaCl, and 2 mM β-mercaptoethanol] before elution with 250 mM imidazole. The Ni elution was collected directly on a preequilibrated amylose column (amylose high flow resin, New England Biolabs, Ipswich, MA). Amylose column was washed with 5 column volumes of cold wash buffer before fractionated elution in a buffer containing 25 mM Hepes (pH 7.5), 150 mM NaCl, 1 mM TCEP, 10% glycerol, 5 mM maltose, and cOmplete EDTA-free protease inhibitor cocktail. The concentration of proteins was determined by their ultraviolet absorption at 280 nm before aliquots were snap-frozen in liquid nitrogen and stored at −80°C.
# For saturating streptavidin resin with biotinylated peptides or biotin, 50 μl of streptavidin resin was mixed with biotin or peptide at 40 to 60 μM concentration in 6 to 6.5 resin volume for 60 min. To saturate streptavidin resin with biotinylated proteins, 50 μl of streptavidin resin (Streptavidin Sepharose High Performance, Cytiva) was mixed with biotinylated MBP or MBP-PDZ at 40 to 50 μM concentration in 20× resin volume for 60 min. After saturation, resins were washed a single time [10 resin volume, holdup buffer: 50 mM tris (pH 7.5), 300 mM NaCl, and 1 mM TCEP, 0.22-μm filtered] and were depleted with biotin (10 resin volume, 10 min, holdup buffer supplemented with 100 μM biotin). Last, resins were washed two times (10 resin volume, holdup buffer).
# For single-point nHU experiments carried out at ~10 μM bait concentration, 50 μl of saturated streptavidin resin was mixed with 200 μl of cell lysate (2 mg/ml). Titration experiments were carried out by mixing control and bait-saturated resin and keeping the total resin volume constant; e.g., ~5 μM bait concentration can be achieved by mixing 25 μl of bait-saturated streptavidin resin with 25 μl of control resin and 200 μl of cell lysate (2 mg/ml). Control and bait-saturated resins were prepared in larger amounts, and a serial dilution was prepared with these presaturated resins to achieve different resin ratios.
# Unless specified elswhere, the nHU mixture was incubated at 4°C for 2 hours. After the incubation ended, the resin was separated from the supernatant by a brief centrifugation (15 s, 2000 g). Then, half of the supernatant was removed by pipetting without any delay to avoid any resin contamination; e.g., 100 μl of supernatant is collected if 200 μl of cell lysate was used as analyte. Alternatively, the supernatant can be centrifuged an additional time to clarify it further, removing any possible resin contamination. In principle, the separation of the supernatant should be as fast as possible since any delay can perturb the equilibrium. […] Alternatively, the resin can be separated from the supernatant using filter plates (e.g., various products of Millipore, Burlington, MA) or spin columns (e.g., Pierce spin cups—cellulose acetate filter from Thermo Fisher Scientific, Waltham, MA) to achieve faster separation. […]
# [3] = Jurkat, series 1, leftover resin, n = 6
# [4] = AP-MS control pull-down, SNX27/MBP, total Jurkat extract
# [5] = AP-MS control pull-down, total Jurkat extract
# [6] = nHU-MS, SNX27/MBP, total Jurkat extract, sheet "SNX27&Jurkat"
# [7] = nHU-MS, SNX27 bait vs MBP control, total Jurkat extract, sheet "SNX27&Jurkat"
# [8] = nHU-MS, total Jurkat extract, sheet "SNX27&Jurkat"
Molecule,FC_AP (log2 fold change) (SNX27_PDZ [1]; [3]),Ratio_AP (SNX27_PDZ [1]; [3]),"BI_HU (SNX27_PDZ [2]; Jurkat, series 1, n = 6)","FC_HU (log2 fold change) (SNX27_PDZ [2]; Jurkat, series 1, n = 6)","Ratio_HU (SNX27_PDZ [2]; Jurkat, series 1, n = 6)","pKapp_significant_binders_HU (SNX27_PDZ [2]; apparent, Eq. 2, Jurkat, series 1, significant binders (1 σ, P < 0.05))",Ratio_AP (SNX27_PDZ [1]; [4]),FC_AP (SNX27_PDZ [1]; [5]),"BINDER_AP (SNX27_PDZ [1]; AP-MS control pull-down, total Jurkat extract, BINDS / DOES NOT BIND)",Ratio_HU (SNX27_PDZ [2]; [6]),BI_HU (SNX27_PDZ [2]; [7]),"pKapp_HU_not_filtered (SNX27_PDZ [2]; nHU-MS, total Jurkat extract)",FC_HU (SNX27_PDZ [2]; [8])
"DARS1: Aspartate--tRNA ligase, cytoplasmic (protein, UniProt P14868 1-501, looked up) Aspartate--tRNA ligase, …: MPSASASRKSQEKPREIMDAAEDYAKERYGISSMIQSQEKPDRVLVRVRDLTIQKADEVVWVRARVHTSRAKGKQCFLVLRQQQFNVQALVAVGDHASKQMVKFAANINKESIVDVEGVVRKVNQKIGSCTQQDVELHVQKIYVISLAEPRLPLQLDDAVRPEAEGEEEGRATVNQDTRLDNRVIDLRTSTSQAVFRLQSGICHLFRETLINKGFVEIQTPKIISAASEGGANVFTVSYFKNNAYLAQSPQLYKQMCICADFEKVFSIGPVFRAEDSNTHRHLTEFVGLDIEMAFNYHYHEVMEEIADTMVQIFKGLQERFQTEIQTVNKQFPCEPFKFLEPTLRLEYCEALAMLREAGVEMGDEDDLSTPNEKLLGHLVKEKYDTDFYILDKYPLAVRPFYTMPDPRNPKQSNSYDMFMRGEEILSGAQRIHDPQLLTERALHHGIDLEKIKAYIDSFRFGAPPHAGGGIGLERVTMLFLGLHNVRQTSMFPRDPKRLTP",3.29,9.779,0.3534,-0.629,0.6466,4.739,–,–,–,–,–,–,–
"BYSL (protein, UniProt Q13895 1-437, looked up) Bystin: MPKFKAARGVGGQEKHAPLADQILAGNAVRAGVREKRRGRGTGEAEEEYVGPRLSRRILQQARQQQEELEAEHGTGDKPAAPRERTTRLGPRMPQDGSDDEDEEWPTLEKAATMTAAGHHAEVVVDPEDERAIEMFMNKNPPARRTLADIIMEKLTEKQTEVETVMSEVSGFPMPQLDPRVLEVYRGVREVLSKYRSGKLPKAFKIIPALSNWEQILYVTEPEAWTAAAMYQATRIFASNLKERMAQRFYNLVLLPRVRDDVAEYKRLNFHLYMALKKALFKPGAWFKGILIPLCESGTCTLREAIIVGSIITKCSIPVLHSSAAMLKIAEMEYSGANSIFLRLLLDKKYALPYRVLDALVFHFLGFRTEKRELPVLWHQCLLTLVQRYKADLATDQKEALLELLRLQPHPQLSPEIRRELQSAVPRDVEDVPITVE",–,–,–,–,–,–,9.097,3.185,DOES NOT BIND,0.6423,0.3577,4.747,-0.6386
"RAE1 (protein, UniProt P78406 1-368, looked up) mRNA export factor RAE1: MSLFGTTSGFGTSGTSMFGSATTDNHNPMKDIEVTSSPDDSIGCLSFSPPTLPGNFLIAGSWANDVRCWEVQDSGQTIPKAQQMHTGPVLDVCWSDDGSKVFTASCDKTAKMWDLSSNQAIQIAQHDAPVKTIHWIKAPNYSCVMTGSWDKTLKFWDTRSSNPMMVLQLPERCYCADVIYPMAVVATAERGLIVYQLENQPSEFRRIESPLKHQHRCVAIFKDKQNKPTGFALGSIEGRVAIHYINPPNPAKDNFTFKCHRSNGTNTSAPQDIYAVNGIAFHPVHGTLATVGSDGRFSFWDKDARTKLKTSEQLDQPISACCFNHNGNIFAYASSYDWSKGHEFYNPQKKNYIFLRNAAEELKPRNKK",–,–,–,–,–,–,3.111,1.637,–,0.6404,0.3596,4.751,-0.643
